Laboratory results published in article PMC4161438 (PLoS Pathogens, 2014).

How the values were obtained:
inflamed microvessels = tested on: inflamed microvessels; design: method as in PMID 8400269; settings: intravital microscopy of inflamed microvessels; ref [50]; cited from earlier work
neutrophil = settings: migration induced by PAF, fMLP or IL-8; ref [49]–[51]; cited from earlier work
From the text: Once released, serine protease may bind to the cell surface and remains relatively inaccessible to inhibitors, in contrast to soluble enzymes, [48]. Elastase and other serine proteases reportedly modulate several functions of neutrophils, including chemokine activation and degradation, cell recruitment, receptor activation, activation of lymphocytes, NET formation, and cleavage of adhesion molecules, apoptotic proteins, and anticoagulants. Assay ...

elastase = molecular target: T1, elastase (Homo sapiens, UniProt P08246); settings: pathologic conditions associated with neutrophil dysfunction; ref [22]; cited from earlier work
T1 construct: purchased Elastin Products Company, Inc. (Owensville, MO, USA)
T1 sequence (P08246 30-267): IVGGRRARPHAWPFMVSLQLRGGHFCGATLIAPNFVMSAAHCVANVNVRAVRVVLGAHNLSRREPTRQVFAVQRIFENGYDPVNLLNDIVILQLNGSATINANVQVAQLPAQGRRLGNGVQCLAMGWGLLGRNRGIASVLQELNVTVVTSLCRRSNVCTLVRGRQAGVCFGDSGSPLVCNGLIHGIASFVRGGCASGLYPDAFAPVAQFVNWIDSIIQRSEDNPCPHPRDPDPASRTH
From the text: Neutrophils also release granule contents containing enzymes such as elastase, proteinase-3, and cathepsin G. Elastase, a particularly inflammatory enzyme, interferes with thrombomodulin function, and cleaves TF pathway inhibitor (TFPI), the physiological inhibitor of the extrinsic pathway. […] Elastase also induces proteinase-activated receptor activation, contributes to cytokine production and processing, inactivates metalloprotease inhibitors, deg ...

bacterial strains = test: Minimum inhibitory concentration (MIC), control over all strains; type: cell-based; settings: ciprofloxacin quality control, 1024-0 ng/ml, each strain; not shown
normal human plasma [1] = test: aPTT; type: biochemical; settings: heparin control 10 µg/ml; not shown
Method: (§1) aPTT and PT were evaluated on a STart 4 stago coagulometer (Diagnostica Stago, Parsippany, NJ, USA). Freeze-dried, citrated, normal human plasma was resuspended in ultra-pure water. […] Then, 50 µl of pre-warmed aPTT reagent (STA PTT; Diagnostica Stago, Asnières sur Seine, France) was added and incubated for an additional 2 min. CaCl2 (50 µl at 25 mM) was added to start reactions. […] Then, 100 µl of the PT reagent (NEOplastine CI plus; Diagnostica Stago) was added. Time for clot formation was recorded in duplicate.

normal human plasma [2] = test: PT; type: biochemical; settings: heparin control 100 µg/ml; not shown
Method: as §1

neutrophils [3] = test: NETs formation; type: cell-based, human; settings: PMA 5 nM, 3 h, no inhibitor
Method: Left panel, non-activated neutrophil (no PMA). Formation of NETs was visualized under confocal microscopy, using antibody against citrullinated histone. Representative experiment is shown (4 different donors). B) Quantification. Performed as described in Methods.
(§2) Whole blood (5 mL collected in 0.5 mL of 3.2% sodium citrate) from healthy donors was diluted in an equal volume of PBS, layered over 5 mL of HISTOPAQUE solution (10771, Sigma Aldrich), and centrifuged for 40 min, at 400×g, at room temperature. The lower interphase having granulocytes was collected and transferred to a 15-ml Falcon tube and resuspended in 10 ml ammonium chloride lysis buffer (1.7 M NH4Cl, […], 1 mM EDTA) to lyse red blood cells. Lysis was carried out twice followed by centrifugation for 10 min at 400×g. […]
Cells were fixed with 500 µl of 4% paraformaldehyde (final concentrations) for 10 min, washed 3 times with PBS and incubated for 10 min with blocking solution (PBS, 10%FBS, 5 mg/ml BSA). […] NETs were quantified according to Farley et al. Briefly, NETs were identified on digitalized images as Hoechst-positive fibrils emanating from cells with an overall length at least twice as long as the cell diameter and were counted for at least two fields of view per variable. Results were expressed as the percentage of NETs/total number of granulocytes.

neutrophils [4] = test: Neutrophil-induced coagulation; type: cell-based, human; settings: neutrophils with PMA 50 nM, 3 h; 370 sec without PMA
Method: (§3) A) Platelet aggregation. Washed human platelets were stimulated with elastase only (500 nM, left panel), or cathepsin G only (110 nM, middle tracing), or elastase followed by cathepsin G (right tracing). […] Aggregation response was monitored by turbidimetry using a Lumi-Aggregometer. D) TFPI cleavage. […] After 2 h, reactions were stopped by addition of LDS loading buffer (under reducing conditions, 10 mM DTT), boiled for 5 min, and loaded in 4–12% Nu-PAGE gel. Gels were Coomassie Blue-stained. E) Neutrophil-induced coagulation. […] Fifty µl of this suspension was added to 50 µl of plasma, and reactions were started by addition of CaCl2 (12.5 mM, final concentration)(*, p<0.05).
as §2, with “400×g. Neutrophils were washed with PBS and resuspended at 1×10^6 cells/mL in high glucose DMEM (GIBCO). Neutrophils were kept on ice.” for “400×g.”

washed human platelets [5] = test: Platelet aggregation, cathepsin G-induced; type: cell-based; settings: low dose cathepsin G 110 nM, no inhibitor
Method: as §3
(§4) Platelet-rich plasma was obtained by plateletpheresis from medication-free platelet donors at the Department of Transfusion Medicine (NIH blood bank). Washing of platelets and platelet aggregation were performed in a Lumi-aggregometer (Chronol-Log, Haverstown, MD, USA) as described, [87].

neutrophil elastase [6] = molecular target: T2, neutrophil elastase (Homo sapiens, UniProt P08246); test: SPR
T2 chain: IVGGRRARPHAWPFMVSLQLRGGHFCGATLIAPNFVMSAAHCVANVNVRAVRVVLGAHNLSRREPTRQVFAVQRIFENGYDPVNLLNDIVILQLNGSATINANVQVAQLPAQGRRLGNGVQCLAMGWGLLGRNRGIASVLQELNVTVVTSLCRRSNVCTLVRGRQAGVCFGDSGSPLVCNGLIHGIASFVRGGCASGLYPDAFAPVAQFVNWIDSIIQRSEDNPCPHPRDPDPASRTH

neutrophil elastase [7] = molecular target: T2, neutrophil elastase; test: enzyme inhibition assay (chromogenic substrate, Cheng-Prusoff)
monocyte-like cells = tested on: monocyte-like cells; design: method as in PMID 16352738; settings: internalized by monocyte-like cells, ref [57], cited from earlier work
[8] = tested on: human neutrophil elastase; test: TFPI cleavage by elastase (SDS/PAGE); type: biochemical; settings: elastase 0.8 µg/ml, TFPI 1 µg, 2 h at RT, no inhibitor
Method: as §3
After 2 h at RT, reactions were stopped by addition of Laemmli buffer (supplemented with dithiothreitol) and boiled for 5 min. Proteins were separated by 4% to 12% NuPAGE (MES buffer); gels were stained with Coomassie Blue R-250 and destained with 40% methanol. See Blue molecular weight (mol. wt.) markers were used (Invitrogen).

washed human platelets [9] = test: Platelet aggregation, elastase followed by cathepsin G; type: cell-based; settings: elastase 500 nM, no inhibitor
Method: as §3, §4

NETs formation = tested on: NETs formation; design: method as in 2 sources, one per row (each row's own in cited_ref): ref [38], [55] = [38]; PMID 20974816; doi:10.1083/jcb.201006052; 38 Papayannopoulos V , Metzler KD , Hakkim A , Zychlinsky A ( 2010 ) Neutrophil elastase and myeloperoxidase regulate the formation of neutrophil extracellular traps . J Cell Biol 191 : 677 – 691 . 20 || [55]; PMID 23635526; doi:10.1159/000348676; 55 Braian C , Hogea V , Stendahl O ( 2013 ) Mycobacterium tuberculosis- induced neutrophil extracellular traps activate human macrophages . J Innate Immun 5 : 591 – 602 . 23635526 10.1159/000348676 PM ||| ref [56] = [56]; PMID 23002442; doi:10.4049/jimmunol.1201167; 56 Farley K , Stolley JM , Zhao P , Cooley J , Remold-O'Donnell E ( 2012 ) A serpinB1 regulatory mechanism is essential for restricting neutrophil extracellular trap generation . J Immunol 189 : 4574; settings: exogenously added, internalized, translocates into nucleus; ref [56]; cited from earlier work

Molecule: CO[C@H]1C(=O)N2C(C(=O)N3CCC[C@H]3C(=O)O)=C(COC(C)=O)CS(=O)(=O)[C@H]12 [L658758, reference compound]
- neutrophil transmigration (inflamed microvessels): inhibition of neutrophil transmigration
- chemotactic neutrophil functions (neutrophil): blocks chemotactic neutrophil functions

Molecule: CC(C)(C)C(=O)Oc1ccc(S(=O)(=O)Nc2ccccc2C(=O)NCC(=O)O)cc1 [sivelestat]
- clinical trial results (elastase): mixed results

Molecule: O=C(O)c1cn(C2CC2)c2cc(N3CCNCC3)c(F)cc2c1=O [ciprofloxacin]
- MIC (bacterial strains): < 1 µg/mL

Molecule: heparin
- aPTT (normal human plasma [1]): prolonged
- PT (normal human plasma [2]): prolonged

Molecule: CCCCCCCCCCCCCC(=O)O[C@@H]1[C@@H](C)[C@@]2(O)[C@@H](C=C(CO)C[C@]3(O)C(=O)C(C)=C[C@@H]23)[C@@H]2C(C)(C)[C@]12OC(C)=O [PMA, Phorbol 12-myristate 13-acetate, reference compound]
- induction of NETs (neutrophils [3]): induces a strong response
- clotting time (neutrophils [4]): 250 s

Molecule: Cc1c(-c2ccnn2C)cc(C(=O)NCc2ccc(S(C)(=O)=O)cn2)c(=O)n1-c1cccc(C(F)(F)F)c1 [AZD9668]
- clinical trial results (elastase): mixed results

B1: cathepsin G: neutrophil protease used as platelet agonist (protein, UniProt P08311 21-244, looked up)
Cathepsin G: IIGGRESRPHSRPYMAYLQIQSPAGQSRCGGFLVREDFVLTAAHCWGSNINVTLGAHNIQRRENTQQHITARRAIRHPQYNQRTIQNDIMLLQLSRRVRRNRNVNPVALPRAQEGLRPGTLCTVAGWGRVSMRRGTDTLREVQLRVQRDRQCLRIFGSYDPRRQICVGDRRERKAAFKGDSGGPLLCNNVAHGIVSYGKSSGVPPEVFTRVSSFLPWIRTTMRS
- platelet activation by cathepsin G only (washed human platelets [5]): activate platelets

B2: Eglin C: pharmacologic inhibitor of elastase (protein, UniProt P01051 1-70, looked up)
Eglin C: TEFGSELKSFPEVVGKTVDQAREYFTLHYPQYDVYFLPEGSPVTLDLRYNRVRVFYNPGTNVVNHVPHVG
- neutrophil transmigration (inflamed microvessels): inhibition of neutrophil transmigration
- chemotactic neutrophil functions (neutrophil): blocks chemotactic neutrophil functions

B3: Agaphelin 1-58 (protein)
chain: DINSEMATCACQLIYRPVCASNNESYSNECVLKCASETPTGRSIGLHKVKDGNCNGEF
- Kd (neutrophil elastase [6]): 17.4 nM
- Ki (neutrophil elastase [7]): 9.22 nM

B4: secretory leukocyte proteinase inhibitor (protein, UniProt P03973 26-132, looked up)
Antileukoproteinase: SGKSFKAGVCPPKKSAQCLRYKKPECQSDWQCPGKKRCCPDTCGIKCLDPVDTPNPTRRKPGKCPVTYGQCLMLNPPNFCEMDGQCKRDLKCCMGMCGKSCVSPVKA
- chemotactic neutrophil functions (neutrophil): blocks chemotactic neutrophil functions
- p65 binding (monocyte-like cells; binds NF-κB binding sites): inhibit p65 binding
- TNF-α and IL-8 generation (monocyte-like cells): promote inhibition of TNF-α and IL-8 generation

B5: elastase: neutrophil elastase, enzyme used as stimulus (protein, UniProt P08246 30-267, looked up)
Neutrophil elastase: IVGGRRARPHAWPFMVSLQLRGGHFCGATLIAPNFVMSAAHCVANVNVRAVRVVLGAHNLSRREPTRQVFAVQRIFENGYDPVNLLNDIVILQLNGSATINANVQVAQLPAQGRRLGNGVQCLAMGWGLLGRNRGIASVLQELNVTVVTSLCRRSNVCTLVRGRQAGVCFGDSGSPLVCNGLIHGIASFVRGGCASGLYPDAFAPVAQFVNWIDSIIQRSEDNPCPHPRDPDPASRTH
- TFPI cleavage by elastase [8]: cleaves TFPI
- shape change or aggregation by elastase only (washed human platelets [9]): does not promote shape change or aggregation

B6: serpin B1: exogenously added elastase inhibitor (protein, UniProt P30740 1-379, looked up)
Leukocyte elastase inhibitor: MEQLSSANTRFALDLFLALSENNPAGNIFISPFSISSAMAMVFLGTRGNTAAQLSKTFHFNTVEEVHSRFQSLNADINKRGASYILKLANRLYGEKTYNFLPEFLVSTQKTYGADLASVDFQHASEDARKTINQWVKGQTEGKIPELLASGMVDNMTKLVLVNAIYFKGNWKDKFMKEATTNAPFRLNKKDRKTVKMMYQKKKFAYGYIEDLKCRVLELPYQGEELSMVILLPDDIEDESTGLKKIEEQLTLEKLHEWTKPENLDFIEVNVSLPRFKLEESYTLNSDLARLGVQDLFNSSKADLSGMSGARDIFISKIVHKSFVEVNEEGTEAAAATAGIATFCMLMPEENFTADHPFLFFIRHNSSGSILFLGRFSSP
- NETs formation (NETs formation): inhibits NETs formation
